Results reported in paper PMC10200060, “Inhibition of DAMP actions in the tumoral microenvironment using lactoferrin-glycyrrhizin conjugate for glioblastoma therapy” (Biomaterials Research, 2023).

What was measured:
HMGB1 = assay: Immunofluorescence staining of HMGB1 in GBM tissue; format: in vivo, Balb/c nude mice; conditions: GBM mice, daily i.v. GL equivalent 50 mg kg^−1, 14 days (control 15.3 ± 1.7)
Text: (§1) After two weeks, mice were sacrificed, and the brains were harvested and fixed with paraformaldehyde (4%). Then, tissue processing was automatically conducted using a Leica TP1020 semi-enclosed Benchtop Tissue Processor (Leica Biosystems, Wetzlar, Hesse, Germany), followed by embedding in paraffin blocks. Paraffin blocks were sliced into 5 μm thick slices using a Leica RM2145 Microtome (Leica Biosystems). Nissl staining was used to stain brain tissue slides with pre-warmed 0.1% Cresyl Violet Stain Solution (Abcam). TUNEL assays were conducted following the manufacturer’s instructions. For immunofluorescence staining; anti-HMGB1 antibody (Abcam), anti-Ki67 antibody (Abcam), anti-CD31 antibody (Abcam), and anti-VEGF antibody (Abcam) were used as primary antibodies, and goat anti-rabbit IgG-H&L Alexa Fluor 488 and goat anti-rabbit IgG H&L Alexa Fluor 647 were used as secondary antibodies, followed by DAPI mounting.

[1] = In vivo pharmacokinetics study; conditions: mice, i.v.
rat aortic rings = assay: Aorta ring assay (ex vivo); conditions: VEGF-conditioned medium, GL equivalent 200 µM, 14 days
Description: An aorta ring assay was conducted to confirm the anti-angiogenesis effect of Lf-GL ex vivo. A 48-well plate was coated with of Matrigel® (100 μL) and was incubated for 30 min or more in 37℃ incubators. In the meantime, thoracic aortas of 7-week-old male SD rats were excised. Then, the fat layer and outer membrane were removed, and rings approximately 1 mm in length were prepared. The prepared aortic rings were seeded on a coated Matrigel® of 48-well plate and were covered with Matrigel®. (100 μL) Subsequently, the aortic ring was treated with a control (with or without 25 ng mL^−1 of VEGF) or different concentrations of Lf-GL complex. Medium was changed once every two days. Fourteen days after treatment, optical images of sprouting microvessels were obtained using microscopy magnification (× 40 or × 100). Sprouting microvessel area was quantified using Image J and Sigma Plot.
Fig. S14. Significant inhibitory effect of Lf-GL in aortic ring angiogenesis. Optical images of vessel regression in aortic ring with Lf-GL treatment. Aortic ring assay was carried out in 48-well plate coated with Matrigel. VEGF-non treated control represents that aortic ring incubated with normal medium. VEGF-treated control represents that aortic ring incubated with 25 ng mL^-1 VEGF-conditioned medium. […]

[2] = In vivo fluorescence tracer image (brain); parameters: species or system Balb/c mice; conditions: FITC-tagged
Description: For the fluorescence tracer images, Balb/c mice were administered either FITC-tagged GL or FITC-tagged Lf-GL at a GL equivalent concentration of 50 mg kg^−1 body weight via tail vein injection. After 1, 10, 30, and 60 min, the experimental mice were sacrificed, and the organs were extracted. The fluorescence signals of FITC-tagged GL or FITC-tagged Lf-GL in organs were imaged using an in vivo imaging system (FOBI, CELLGENTEK, South Korea). The exposure time was fixed to 200 s for analyzing fluorescent signals from tissues. The quantified fluorescence signal of the brain at each time point was measured in terms of intensity units (IU, Intensity Min^−1 Gain^−1).
Fig. S15. Fluorescence tracer images of intravenously injected GL and Lf-GL. Balb/c mice were administered either FITC-tagged GL or FITC-tagged Lf-GL at a GL equivalent concentration of 50 mg kg^-1 body weight via tail vein injection. The fluorescence signals of FITC-tagged GL or FITC-tagged Lf-GL in organs were imaged using an in vivo imaging system (FOBI, CELLGENTEK, South Korea). The exposure time was fixed to 200 sec for analyzing fluorescent signals from tissues. The quantified fluorescence signal of brain at each time point was measured with Intensity Unit (IU, Intensity Min^-1 Gain^-1).

[3] = biological target: T1, human recombinant HMGB1 protein (Homo sapiens, UniProt P09429); assay: SPR binding affinity against HMGB1
T1 construct: purchased Abcam
T1 sequence (P09429 1-215): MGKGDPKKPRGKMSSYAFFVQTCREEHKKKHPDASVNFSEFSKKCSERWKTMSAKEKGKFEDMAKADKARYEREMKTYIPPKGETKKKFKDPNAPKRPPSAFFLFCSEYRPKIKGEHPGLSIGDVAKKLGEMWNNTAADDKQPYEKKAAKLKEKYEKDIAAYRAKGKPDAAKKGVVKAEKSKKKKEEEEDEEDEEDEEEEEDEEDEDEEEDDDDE
Description: To confirm the binding affinity of Lf-GL to HMGB1, Surface Plasmon Resonance (SPR) was conducted at WoojungBSC (Korea). The Reichert SR7500DC system (Reichert technologies, NA, USA) and Scrubber2 software (Biologic software, FRA) were used, and a CMDH chip (Cat #: 13,206,066, Reichert technologies) was used for immobilization of the human recombinant HMGB1 protein (Abcam). HMGB1 protein was used as a ligand, and the analytes were HMGB1 antibody (Abcam), GL, Lf and Lf-GL conjugate. The immobilization buffer was S.A. (10 × 10^–3 M, pH 4.5), and the running buffer was PBS (pH 7.4). The flow rate of the analyte was 30 μL min^−1. The association and dissociation time were 3 min each, and measurements were conducted at room temperature. Results are expressed in response units (RU) over time.
Fig. S5. Binding affinity against HMGB1. Surface Plasmon Resonance (SPR) was conducted at WoojungBSC (Korea). The Reichert SR7500DC system (Reichert technologies, NA, USA) and Scrubber2 software(Biologic software, FRA) were used and the CMDH chip (Cat #: 13206066, Reichert technologies) was used for immobilization of the human recombinant HMGB1 protein (Abcam). HMGB1 protein was used as ligand and analytes were HMGB1 antibody (Abcam), GL, Lf and Lf-GL conjugate. Immobilization buffer was 10 mM S.A. (pH 4.5) and running buffer was 1× PBS. The flow rate of the analyte was 30 μL min^-1. The association and dissociation time were 3 min each and conducted at room temperature. Results are expressed in response units (RU) over time.

[4] = tested on: orthotopic GBM (U87MG) mice model; assay: Nissl staining: GBM/normal brain ratio; format: in vivo, Balb/c nude mice; conditions: daily i.v. GL equivalent 50 mg kg^−1, 14 days (control 37.5 ± 2.3)
Text: as §1

[5] = GL equivalent 50 mg kg^−1, plasma
[6] = SPR, HMGB1 immobilized, PBS pH 7.4, room temperature

B1: Lf-GL: lactoferrin-glycyrrhizin conjugate with ligation ratio Lf:GL 1:10, used in further experiments (conjugate, UniProt P24627 20-708, looked up)
Lactotransferrin: APRKNVRWCTISQPEWFKCRRWQWRMKKLGAPSITCVRRAFALECIRAIAEKKADAVTLDGGMVFEAGRDPYKLRPVAAEIYGTKESPQTHYYAVAVVKKGSNFQLDQLQGRKSCHTGLGRSAGWIIPMGILRPYLSWTESLEPLQGAVAKFFSASCVPCIDRQAYPNLCQLCKGEGENQCACSSREPYFGYSGAFKCLQDGAGDVAFVKETTVFENLPEKADRDQYELLCLNNSRAPVDAFKECHLAQVPSHAVVARSVDGKEDLIWKLLSKAQEKFGKNKSRSFQLFGSPPGQRDLLFKDSALGFLRIPSKVDSALYLGSRYLTTLKNLRETAEEVKARYTRVVWCAVGPEEQKKCQQWSQQSGQNVTCATASTTDDCIVLVLKGEADALNLDGGYIYTAGKCGLVPVLAENRKSSKHSSLDCVLRPTEGYLAVAVVKKANEGLTWNSLKDKKSCHTAVDRTAGWNIPMGLIVNQTGSCAFDEFFSQSCAPGADPKSRLCALCAGDDQGLDKCVPNSKEKYYGYTGAFRCLAEDVGDVAFVKNDTVWENTNGESTADWAKNLNREDFRLLCLDGTRKPVTEAQSCHLAVAPNHAVVSRSDRAAHVKQVLLHQQALFGKNGKNCPDKFCLFKSETKNLLFNDNTECLAKLGGRPTYEEYLGTEYVTAIANLKKCSTSPLLEACAFLTR
modifications: glycyrrhizin conjugate
HMGB1
  Mean fluorescence intensity (MFI) of HMGB1: 1.7 ± 1.0
[1]; GL equivalent 50 mg kg^−1
  Increase of AUClast versus free GL: tenfold
[1]; [5]
  Cmax: 270.98 ± 130.92 μg/㎖
  MRT, mean retention time: 3.4 ± 0.8 min
  Tmax: 1 min
Rat aortic rings
  Decrease of sprouted area of the micro-vessel: 80.2 ± 4.5%
[2]; i.v. GL equivalent 50 mg kg^−1
  Time up to which fluorescence signal was detected in the brain: up to 60 min
[2]; i.v. GL equivalent 50 mg kg^−1, 10 min after injection
  Fluorescence intensity in the brain: 15,234 I.U.
[3]; SPR, HMGB1 immobilized
  KD, equilibrium dissociation constant (KD = Kd Ka^−1): 23.1 ± 0.1 nM
[3]; [6]
  Ka, association rate constant: (2.64±0.01)·10^4 M^-1s^-1
  Kd, dissociation rate constant: (3.11±0.02)·10^-4 M^-1s^-1
[3]; ratio of KD values
  Affinity for HMGB1 higher than that of HMGB1 antibody: 45 fold
[4]
  GBM/normal brain ratio: 8.9 ± 3.2
